According to the supplement of paper PMC10724198:
± gives the standard deviation of the averaged measurements.

System: Saccharomyces cerevisiae
Experiment: protein stability index of tFT-peptide fusion (C-terminal peptide) (PSI (0-1 scale)); higher = more stable (slower turnover)
Settings: temperature: 30 C
Protocol: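 MPS profiling in S. cerevisiae of the yeast C-terminome library: the last 12 aa of each annotated ORF are fused to the C-terminus of a sfGFP-mCherry timer, after a GGGS linker. Cells are FACS-sorted into 8 mCherry/sfGFP bins and deep-sequenced. PSI runs from 0 (unstable) to 1 (stable); wild type and das1Δ backgrounds, two technical replicates each.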

[1] = genetic background: das1 deletion

For ESTPKDAARSTN [ASF1 C-terminal 12 aa], the protein stability index [1] was 0.69 ± 0.025 and the protein stability index (genetic background: wild type) was 0.705 ± 0.028.

For LIWELGDGQSGQ [INO4 C-terminal 12 aa], the protein stability index [1] was 0.7444 ± 0.0017 and the protein stability index (genetic background: wild type) was 0.7182 ± 0.0015.

With SKFTGRKRRHRF [BUD23 C-terminal 12 aa] the protein stability index [1] was 0.67693 ± 0.00035 and the protein stability index (genetic background: wild type) was 0.711 ± 0.05.

Work on QKEPNDQIDVEE [GPN3 C-terminal 12 aa] yielded a protein stability index [1] of 0.673 ± 0.025 and a protein stability index (genetic background: wild type) of 0.698 ± 0.042.

With IRKYGYNLAAYT [YLR462W C-terminal 12 aa] the protein stability index [1] was 0.6649 ± 0.00076 and the protein stability index (genetic background: wild type) was 0.6563 ± 0.0049.

Sequence RFAKGGKFVEVD [ATP18 C-terminal 12 aa] has a protein stability index [1] of 0.6904 ± 0.001 and a protein stability index (genetic background: wild type) of 0.6675 ± 0.0047.

In the case of KYFADLTQSITK [YBR242W C-terminal 12 aa], the protein stability index [1] is reported as 0.719 ± 0.051 and the protein stability index (genetic background: wild type) is reported as 0.687 ± 0.029.

DGGLAGPVTVRD [FMP45 C-terminal 12 aa] showed a protein stability index [1] of 0.6903 ± 0.005 and a protein stability index (genetic background: wild type) of 0.713 ± 0.048.

TSPKESFFKEVI [LPX2 C-terminal 12 aa] gave a protein stability index [1] of 0.715 ± 0.03 and a protein stability index (genetic background: wild type) of 0.711 ± 0.022.

In the case of QHIKTHKKHGDI [MSN2 C-terminal 12 aa], the protein stability index [1] is reported as 0.67783 ± 0.00033 and the protein stability index (genetic background: wild type) is reported as 0.667 ± 0.014.

For KKKSQNKSRKDD [PBR1 C-terminal 12 aa], the protein stability index [1] was 0.7005 ± 0.0067 and the protein stability index (genetic background: wild type) was 0.691 ± 0.069.

For SGDIVAVIETLA [DUR12 C-terminal 12 aa], the protein stability index [1] was 0.51 ± 0.033 and the protein stability index (genetic background: wild type) was 0.571 ± 0.049.

Sequence DSVEMKFDKLNI [RBS1 C-terminal 12 aa] has a protein stability index [1] of 0.6821 ± 0.0029 and a protein stability index (genetic background: wild type) of 0.748 ± 0.085.

With IIQSYINLLEEN [NKP2 C-terminal 12 aa] the protein stability index [1] was 0.708 ± 0.017 and the protein stability index (genetic background: wild type) was 0.756 ± 0.059.

Work on TNVGLKLIAIAK [PPM2 C-terminal 12 aa] yielded a protein stability index [1] of 0.655 ± 0.034 and a protein stability index (genetic background: wild type) of 0.649 ± 0.017.

Work on DSFIPLQPKKKI [YML037C C-terminal 12 aa] yielded a protein stability index [1] of 0.684 ± 0.05 and a protein stability index (genetic background: wild type) of 0.684 ± 0.015.

For SCAKDILGEENF [BRE4 C-terminal 12 aa], the protein stability index [1] was 0.687 ± 0.0079 and the protein stability index (genetic background: wild type) was 0.661 ± 0.04.

With LLRPRSPVQKAQ [KAR4 C-terminal 12 aa] the protein stability index [1] was 0.69 ± 0.025 and the protein stability index (genetic background: wild type) was 0.658 ± 0.064.

Sequence LECTPIINLFIV [MNL1 C-terminal 12 aa] has a protein stability index [1] of 0.644 ± 0.0069 and a protein stability index (genetic background: wild type) of 0.13125 ± 2.3e-05.

Work on AINEGHEGFGLA [TOM1 C-terminal 12 aa] yielded a protein stability index [1] of 0.663 ± 0.025 and a protein stability index (genetic background: wild type) of 0.687 ± 0.024.

With VAAGVFIEHDEL [YOS9 C-terminal 12 aa] the protein stability index [1] was 0.723 ± 0.0098 and the protein stability index (genetic background: wild type) was 0.702 ± 0.013.

Sequence SSGCRRLMVGYN [ERC1 C-terminal 12 aa] has a protein stability index [1] of 0.6979 ± 0.0017 and a protein stability index (genetic background: wild type) of 0.684 ± 0.0074.

For INSQTMTVTTAL [VHC1 C-terminal 12 aa], the protein stability index [1] was 0.685 ± 0.039 and the protein stability index (genetic background: wild type) was 0.69051 ± 0.00012.

ILRQYFTDLASS [REA1 C-terminal 12 aa] gave a protein stability index [1] of 0.675 ± 0.026 and a protein stability index (genetic background: wild type) of 0.696 ± 0.041.

EMRKRFFEKDLL [RAP1 C-terminal 12 aa] was tested, and the protein stability index [1] was 0.696 ± 0.022 and the protein stability index (genetic background: wild type) was 0.723 ± 0.059.

Sequence SNSLPKLKFHSM [OCA6 C-terminal 12 aa] has a protein stability index [1] of 0.725 ± 0.044 and a protein stability index (genetic background: wild type) of 0.681 ± 0.011.

For SSDRSAAEKRNT [TYR1 C-terminal 12 aa], the protein stability index [1] was 0.699 ± 0.029 and the protein stability index (genetic background: wild type) was 0.673 ± 0.039.

EDGDNWEVVGKK [TIF3 C-terminal 12 aa] showed a protein stability index [1] of 0.7056 ± 0.0056 and a protein stability index (genetic background: wild type) of 0.727 ± 0.012.

Work on MVYKPEDSLLKI [MTR2 C-terminal 12 aa] yielded a protein stability index [1] of 0.684 ± 0.039 and a protein stability index (genetic background: wild type) of 0.67 ± 0.014.

AAPQDINQQPNQ [LDS1 C-terminal 12 aa] gave a protein stability index [1] of 0.727 ± 0.028 and a protein stability index (genetic background: wild type) of 0.671 ± 0.0087.

For EGEYADNVEPLA [PRY1 C-terminal 12 aa], the protein stability index [1] was 0.7124 ± 0.0048 and the protein stability index (genetic background: wild type) was 0.685 ± 0.02.

For EELQGNARALNN [SNN1 C-terminal 12 aa], the protein stability index [1] was 0.6962 ± 0.0046 and the protein stability index (genetic background: wild type) was 0.69 ± 0.019.

In the case of IRDILKLGHPTR [GYP8 C-terminal 12 aa], the protein stability index [1] is reported as 0.699 ± 0.043 and the protein stability index (genetic background: wild type) is reported as 0.666 ± 0.034.

Sequence FINCSSKYNGLQ [YBR224W C-terminal 12 aa] has a protein stability index [1] of 0.687 ± 0.0088 and a protein stability index (genetic background: wild type) of 0.703 ± 0.019.
